The source of these data is PMC9888200.

Test [1] deals with Biotinylated MPER peptide (HIV-1). Description: BLI; biotinylated MPER peptide (30 nM) loaded on streptavidin biosensors to 0.6 nm, Octet RED96; Fabs at 50 and 100 nM; 0.5% BSA in PBS with 0.05% Tween 20; association 5 min, dissociation 10 min; values of the two concentrations averaged.
The target in the next test is recombinant FcγRI (UniProt P12314). As to the kind of experiment: ELISA. As to conditions: highest mAb concentration, about 200 nM (est. from x axis); parent: est. 0.73; read off a plot.
Sequence of UniProt P12314 (P12314 16-292): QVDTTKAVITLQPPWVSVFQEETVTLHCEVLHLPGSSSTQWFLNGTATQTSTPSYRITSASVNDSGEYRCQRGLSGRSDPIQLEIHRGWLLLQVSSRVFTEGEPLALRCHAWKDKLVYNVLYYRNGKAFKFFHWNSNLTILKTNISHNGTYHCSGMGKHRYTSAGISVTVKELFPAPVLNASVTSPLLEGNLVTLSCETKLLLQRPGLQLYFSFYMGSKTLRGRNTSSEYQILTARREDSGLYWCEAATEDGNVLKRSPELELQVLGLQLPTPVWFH

In test [1], 10E8 Fab displayed a Kd of 3.8 nM and an off-rate (koff) of 0.0016 s⁻¹.
As to “10E8v4 WT antibody (IgG) L234A; L235A; P329G”, the response (Absorbance at 450nm) in the test with recombinant FcγRI was determined as 0.05.
